According to the supplement of paper PMC9112550, “Optimization of the antimicrobial peptide Bac7 by deep mutational scanning” (BMC Biology, 2022):

System: Escherichia coli TOP10
Test: shrunken log2 fold change of peptide-encoding DNA abundance (4.5 h post-induction vs induction); higher = less antimicrobial activity (less host growth inhibition)
Settings: time post-induction: 4.5 h; library: site-saturation at positions 5, 18, 19, 20
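Further: peptides expressed intracellularly from a pBAD plasmid library in pooled LB shake-flask culture, induced with 0.3% L-arabinose, DNA abundance read by NGS, three biological replicates, DESeq2 with apeglm shrinkage.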

| Sequence | shrunken log2 fold change |
| --- | --- |
| RRIRYRPPRLPRPRPRPIGVPRP | -0.0936 |
| RRIRLRPPRLPRPRPRPRRCPRP | 0.356 |
| RRIRFRPPRLPRPRPRPYFLPRP | -0.628 |
| RRIRMRPPRLPRPRPRPWWHPRP | 0.158 |
| RRIRLRPPRLPRPRPRPQRPPRP | 0.265 |
| RRIRVRPPRLPRPRPRPDCYPRP | -0.15 |
| RRIRKRPPRLPRPRPRPHWLPRP | 0.148 |
| RRIRYRPPRLPRPRPRPHDMPRP | -0.00277 |
| RRIRARPPRLPRPRPRPRPNPRP | 0.493 |
| RRIRNRPPRLPRPRPRPWVYPRP | -0.0702 |
| RRIRDRPPRLPRPRPRPMEQPRP | -0.164 |
| RRIRSRPPRLPRPRPRPTLYPRP | 0.0585 |
| RRIRNRPPRLPRPRPRPQPMPRP | -0.111 |
| RRIRLRPPRLPRPRPRPHCIPRP | -0.0543 |
| RRIRSRPPRLPRPRPRPSMGPRP | -0.0521 |
| RRIRCRPPRLPRPRPRPFQMPRP | -0.423 |
| RRIRWRPPRLPRPRPRPFRHPRP | -0.0307 |
| RRIRARPPRLPRPRPRPQRSPRP | 0.17 |
| RRIRLRPPRLPRPRPRPAEPPRP | 0.188 |
| RRIRIRPPRLPRPRPRPPLNPRP | -0.227 |
| RRIRWRPPRLPRPRPRPRVAPRP | 0.699 |
| RRIRMRPPRLPRPRPRPRHYPRP | -0.0487 |
| RRIRSRPPRLPRPRPRPWLIPRP | -0.0422 |
| RRIRDRPPRLPRPRPRPYQSPRP | -1.12 |
| RRIRNRPPRLPRPRPRPTCVPRP | -0.185 |

| Sequence | shrunken log2 fold change |
| --- | --- |
| RRIRCRPPRLPRPRPRPNMVPRP | 0.0392 |
| RRIRWRPPRLPRPRPRPSLYPRP | -0.402 |
| RRIRMRPPRLPRPRPRPHTWPRP | -0.0904 |
| RRIRHRPPRLPRPRPRPICNPRP | -0.422 |
| RRIRFRPPRLPRPRPRPQQNPRP | 0.383 |
| RRIRMRPPRLPRPRPRPYKYPRP | -0.851 |
| RRIRHRPPRLPRPRPRPRYCPRP | -0.293 |
| RRIRMRPPRLPRPRPRPHCDPRP | -0.0833 |
| RRIRCRPPRLPRPRPRPTWAPRP | 0.118 |
| RRIRSRPPRLPRPRPRPIQAPRP | -0.0793 |
| RRIRNRPPRLPRPRPRPVGGPRP | 0.279 |
| RRIRQRPPRLPRPRPRPWEIPRP | -0.00822 |
| RRIRIRPPRLPRPRPRPFGCPRP | -0.742 |
| RRIRDRPPRLPRPRPRPGKKPRP | -0.00968 |
| RRIRHRPPRLPRPRPRPWTAPRP | -0.0875 |
| RRIRLRPPRLPRPRPRPPFFPRP | 0.14 |
| RRIRERPPRLPRPRPRPADHPRP | -0.0618 |
| RRIRGRPPRLPRPRPRPCQSPRP | 0.108 |
| RRIRARPPRLPRPRPRPITWPRP | 0.0845 |
| RRIRYRPPRLPRPRPRPPTGPRP | 0.0896 |
| RRIRQRPPRLPRPRPRPWGRPRP | 0.00592 |
| RRIRLRPPRLPRPRPRPYKTPRP | -0.352 |
| RRIRARPPRLPRPRPRPVCNPRP | 0.0721 |
| RRIRFRPPRLPRPRPRPYSLPRP | -0.00881 |
| RRIRERPPRLPRPRPRPIINPRP | -0.702 |

| Sequence | shrunken log2 fold change |
| --- | --- |
| RRIRKRPPRLPRPRPRPYFYPRP | -0.274 |
| RRIRNRPPRLPRPRPRPMTGPRP | -0.149 |
| RRIRIRPPRLPRPRPRPPDGPRP | 1.84 |
| RRIRNRPPRLPRPRPRPHTQPRP | -0.328 |
| RRIRDRPPRLPRPRPRPAKLPRP | 0.0322 |
| RRIRNRPPRLPRPRPRPGRWPRP | 0.762 |
| RRIRHRPPRLPRPRPRPNMSPRP | -0.245 |
| RRIRNRPPRLPRPRPRPPISPRP | 0.129 |
| RRIRQRPPRLPRPRPRPATKPRP | 0.154 |
| RRIRIRPPRLPRPRPRPNQKPRP | 0.0249 |
| RRIRWRPPRLPRPRPRPGSEPRP | 0.385 |
| RRIRWRPPRLPRPRPRPDWQPRP | 0.00408 |
| RRIRYRPPRLPRPRPRPQIHPRP | -1.2 |
| RRIRDRPPRLPRPRPRPTKHPRP | -0.0699 |
| RRIRLRPPRLPRPRPRPGWGPRP | 0.335 |
| RRIRIRPPRLPRPRPRPIDHPRP | -0.0137 |
| RRIRERPPRLPRPRPRPDTTPRP | 0.0503 |
| RRIRPRPPRLPRPRPRPWYQPRP | -0.0967 |
| RRIRLRPPRLPRPRPRPGAYPRP | -0.16 |
| RRIRVRPPRLPRPRPRPIIDPRP | 0.0493 |
| RRIRNRPPRLPRPRPRPYSMPRP | -0.292 |
| RRIRQRPPRLPRPRPRPASLPRP | -0.232 |
| RRIRMRPPRLPRPRPRPALSPRP | 0.539 |
| RRIRIRPPRLPRPRPRPAQDPRP | -0.0552 |
| RRIRPRPPRLPRPRPRPFPMPRP | -0.175 |

| Sequence | shrunken log2 fold change |
| --- | --- |
| RRIRTRPPRLPRPRPRPLANPRP | -0.105 |
| RRIRERPPRLPRPRPRPSMIPRP | -0.171 |
| RRIRCRPPRLPRPRPRPDVPPRP | -0.0242 |
| RRIRARPPRLPRPRPRPTAQPRP | 0.936 |
| RRIRHRPPRLPRPRPRPSTPPRP | -0.225 |
| RRIRFRPPRLPRPRPRPGITPRP | -0.45 |
| RRIRIRPPRLPRPRPRPLGIPRP | 0.132 |
| RRIRNRPPRLPRPRPRPSMVPRP | -0.508 |
| RRIRYRPPRLPRPRPRPAEDPRP | -0.176 |
| RRIRPRPPRLPRPRPRPGAPPRP | 0.536 |
| RRIRKRPPRLPRPRPRPVTRPRP | 0.754 |
| RRIRYRPPRLPRPRPRPQREPRP | -0.00996 |
| RRIRRRPPRLPRPRPRPLLIPRP | 0.145 |
| RRIRQRPPRLPRPRPRPQSSPRP | 0.0994 |
| RRIRGRPPRLPRPRPRPESTPRP | 1.63 |
| RRIRLRPPRLPRPRPRPKIRPRP | -0.128 |
| RRIRHRPPRLPRPRPRPIVWPRP | -0.2 |
| RRIRMRPPRLPRPRPRPVLGPRP | 0.741 |
| RRIRARPPRLPRPRPRPWTSPRP | -0.064 |
| RRIRFRPPRLPRPRPRPDPAPRP | 0.266 |
| RRIRHRPPRLPRPRPRPIFHPRP | -0.155 |
| RRIRTRPPRLPRPRPRPDFTPRP | -0.0888 |
| RRIRSRPPRLPRPRPRPKHDPRP | -0.0942 |
| RRIRTRPPRLPRPRPRPHHAPRP | -0.00367 |
| RRIRHRPPRLPRPRPRPCFLPRP | -0.0717 |

| Sequence | shrunken log2 fold change |
| --- | --- |
| RRIRMRPPRLPRPRPRPVQPPRP | 0.229 |
| RRIRLRPPRLPRPRPRPNMNPRP | -0.68 |
| RRIRWRPPRLPRPRPRPVQQPRP | -0.0911 |
| RRIRFRPPRLPRPRPRPTSTPRP | -0.0598 |
| RRIRARPPRLPRPRPRPFNMPRP | -0.201 |
| RRIRKRPPRLPRPRPRPEERPRP | 1.23 |
| RRIRLRPPRLPRPRPRPTCGPRP | 0.281 |
| RRIRSRPPRLPRPRPRPRSSPRP | -0.269 |
| RRIRQRPPRLPRPRPRPYERPRP | 0.074 |
| RRIRDRPPRLPRPRPRPCKNPRP | 0.056 |
| RRIRNRPPRLPRPRPRPIYTPRP | -0.288 |
| RRIRERPPRLPRPRPRPATWPRP | -0.014 |
| RRIRYRPPRLPRPRPRPFNKPRP | -0.00496 |
| RRIRCRPPRLPRPRPRPTCHPRP | 0.0303 |
| RRIRLRPPRLPRPRPRPVMSPRP | -0.152 |
| RRIRERPPRLPRPRPRPRDGPRP | 0.237 |
| RRIRYRPPRLPRPRPRPKYSPRP | -0.274 |
| RRIRRRPPRLPRPRPRPFWTPRP | 0.00443 |
| RRIRHRPPRLPRPRPRPHPWPRP | -0.0988 |
| RRIRWRPPRLPRPRPRPDTIPRP | -0.019 |
| RRIRIRPPRLPRPRPRPHWDPRP | -0.248 |
| RRIRRRPPRLPRPRPRPCTDPRP | -0.115 |
| RRIRARPPRLPRPRPRPSATPRP | 1.26 |
| RRIRCRPPRLPRPRPRPQHRPRP | -0.246 |
| RRIRMRPPRLPRPRPRPIKYPRP | 0.188 |
